Data reported in paper PMC5022050, “The Crystal Structure of Peroxiredoxin Asp f3 Provides Mechanistic Insight into Oxidative Stress Resistance and Virulence of Aspergillus fumigatus” (Scientific Reports, 2016).
Positions count from the first letter of the chain named. Names may count otherwise.

B1: Asp f3 wild type, recombinant, C-terminally His-tagged (enzyme)
chain: MGSGLKAGDSFPSDVVFSYIPWSEDKGEITACGIPINYNASKEWADKKVILFALPGAFTPVCSARHVPEYIEKLPEIRAKGVDVVAVLAYNDAYVMSAWGKANQVTGDDILFLSDPDARFSKSIGWADEEGRTKRYALVIDHGKITYAALEPAKNHLEFSSAETVLKHL
notes: also called Aspf3 WT; WT Asp f3; source: E. coli ClearColi BL21(DE3), purified (Ni-NTA, size-exclusion on Superdex 75); not shown: His6, C-terminal, kept
B2: Asp f3 C31S/C61S variant, recombinant, C-terminally His-tagged (enzyme)
chain: B1 chain with C32S, C62S
notes: also called serine variant; mimic of the reduced Asp f3; source: E. coli ClearColi BL21(DE3), purified (Ni-NTA, size-exclusion on Superdex 75); not shown: His6, C-terminal, kept

Molecular target: the molecule itself
Test: AUC; sedimentation equilibrium, PBS pH 7.4, ~5, ~15 and ~25 uM protein, 10000, 20000 and 30000 rpm, 25 °C; global fit with Sedfit and Sedphat

Row | Protein | stoichiometry N
1 | B1 | 2
2 | B2 | 2
